Assay results: patent publication US20230322882A1 (NANJING NORMAL UNIVERSITY, published 2023)
Positions count from the first letter of the chain named. Like-named read-outs stand apart in the source and are kept apart here. Blank lines part the entries; values can stand above or below the binder they belong to.

Columns and labels:
[1] = target: T1, CD25, CD122 and CD132 receptor molecules on HEK-Blue IL-2 cells (UniProt P01589 22-272; P14784 27-551; P31785 23-369, limits assumed); assay: cell-based or functional assay
T1 sequence (looked up) 1: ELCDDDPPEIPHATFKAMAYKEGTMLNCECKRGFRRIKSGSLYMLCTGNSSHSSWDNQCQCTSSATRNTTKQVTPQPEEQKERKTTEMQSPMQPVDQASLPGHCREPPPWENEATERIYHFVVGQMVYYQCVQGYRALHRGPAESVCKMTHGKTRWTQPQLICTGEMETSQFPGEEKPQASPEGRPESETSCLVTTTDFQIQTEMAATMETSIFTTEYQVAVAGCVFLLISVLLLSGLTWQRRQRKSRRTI
T1 sequence (looked up) 2: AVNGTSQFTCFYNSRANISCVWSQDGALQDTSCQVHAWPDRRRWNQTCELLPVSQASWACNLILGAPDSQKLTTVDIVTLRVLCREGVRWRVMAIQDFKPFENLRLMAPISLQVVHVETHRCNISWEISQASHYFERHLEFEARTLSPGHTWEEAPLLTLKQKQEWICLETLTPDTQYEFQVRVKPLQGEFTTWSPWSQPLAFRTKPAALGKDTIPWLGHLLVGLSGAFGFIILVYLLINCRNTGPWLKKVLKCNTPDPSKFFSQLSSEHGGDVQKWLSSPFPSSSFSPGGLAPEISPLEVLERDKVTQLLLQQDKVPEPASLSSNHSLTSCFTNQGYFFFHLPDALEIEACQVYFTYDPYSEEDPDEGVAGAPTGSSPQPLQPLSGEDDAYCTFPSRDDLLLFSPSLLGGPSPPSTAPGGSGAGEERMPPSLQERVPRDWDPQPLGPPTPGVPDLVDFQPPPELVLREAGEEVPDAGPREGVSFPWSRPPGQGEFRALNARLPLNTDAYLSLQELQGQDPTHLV
T1 sequence (looked up) 3: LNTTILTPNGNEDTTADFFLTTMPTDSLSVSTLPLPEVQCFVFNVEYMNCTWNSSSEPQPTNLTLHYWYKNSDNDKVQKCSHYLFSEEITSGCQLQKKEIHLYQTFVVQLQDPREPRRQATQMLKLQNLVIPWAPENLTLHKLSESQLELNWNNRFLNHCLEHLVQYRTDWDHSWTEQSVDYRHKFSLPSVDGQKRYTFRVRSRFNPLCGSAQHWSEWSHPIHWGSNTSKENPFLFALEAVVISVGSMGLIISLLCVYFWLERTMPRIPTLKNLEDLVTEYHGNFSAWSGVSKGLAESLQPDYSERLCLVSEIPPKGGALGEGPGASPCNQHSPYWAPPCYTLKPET

[2] = target: T1, CD25, CD122 and CD132 receptor …; assay: cell-based or functional assay; remark: listed apart in the source

EC50 (pM), STAT5-regulated SEAP reporter in HEK-Blue IL-2 cells [1]: 10.8 pM
B1: Polypeptide dimer 1 (SEQ ID NO: 31 + SEQ ID NO: 32) (Fc fusion)
chain 1: HHHHHHTCPPCPAPEAAGGPSVFLFPPKPKDTLMISRTPEVTCVVVDVSHEDPEVKFNWYVDGVEVHNAKTKPREEQYNSTYRVVSVLTVLHQDWLNGKEYKCKVSNKALGAPIEKTISKAKGQPREPQVYTLPPCREEMTKNQVSLWCLVKGFYPSDIAVEWESNGQPENNYKTTPPVLDSDGSFFLYSKLTVDKSRWQQGNVFSCSVMHEALHNHYTQKSLSLSPGGGGGSGGGGSNFHLRPRDLISNINVIVLELKGSETTFMCEYADETATIVEFLNRWITFSQSIISTLTGSGPASSSTKKTQLQLEHLLLDLQMILNGINNYKNPKLTRMLTFKFYMPKKATELKHLQCLEEELKPLEEVLNLAQSK
chain 2: HTCPPCPAPEAAGGPSVFLFPPKPKDTLMISRTPEVTCVVVDVSHEDPEVKFNWYVDGVEVHNAKTKPREEQYNSTYRVVSVLTVLHQDWLNGKEYKCKVSNKALGAPIEKTISKAKGQPREPQVCTLPPSREEMTKNQVSLSCAVKGFYPSDIAVEWESNGQPENNYKTTPPVLDSDGSFFLVSKLTVDKSRWQQGNVFSCSVMHEALHNHYTQKSLSLSPGGGGGSGGGGSELCDDDPPEIPHATFKAMAYKEGTMLNCECKRGFRRIKSGSLYMLCTGNSSHSSWDNQCQCTSSATRNTTKQVTPQPEEQKERKTTEMQSPMQPVDQASLPGHCREPPPWENEATERIYHFVVGQMVYYQCVQGYRALHRGPAESVCKMTHGKTRWTQPQLICTGDYKDDDDK

EC50 (pM), STAT5-regulated SEAP reporter in HEK-Blue IL-2 cells [2]: 10.2 pM
B2: Polypeptide dimer 2 (SEQ ID NO: 33 + SEQ ID NO: 34) (Fc fusion)
chain 1: B1 chain 1 with Y131C, C136S, W148S, L150A, Y189V
chain 2: B1 chain 2 with C126Y, S131C, S143W, A145L, V184Y
